Results: paper PMC3267040, “Structure of a Blinkin-BUBR1 Complex Reveals an Interaction Crucial for Kinetochore-Mitotic Checkpoint Regulation via an Unanticipated Binding Site” (Structure(London, England:1993), 2011)

Key:
[1] = molecular target: T1, BUBR1_(57-220), recombinant protein (human, UniProt O60566 57-220); assay: ITC; BUBR1_(57-220) at 27 μM titrated against 200 μM of Blinkin peptide S208-K226; details: both partners purified
T1 construct: BUBR1, human, residues 57-220 (TPR-containing domain); 15N,13C-labelled for NMR; also called native BUBR1; free BUBR1

[2] = molecular target: T1, BUBR1_(57-220), recombinant protein; assay: fluorescence-based thermal shift assay; Tm of BUBR1_(57-220) without and with Blinkin S208-K226 peptide; details: both partners purified

T1 sequence (O60566 57-220): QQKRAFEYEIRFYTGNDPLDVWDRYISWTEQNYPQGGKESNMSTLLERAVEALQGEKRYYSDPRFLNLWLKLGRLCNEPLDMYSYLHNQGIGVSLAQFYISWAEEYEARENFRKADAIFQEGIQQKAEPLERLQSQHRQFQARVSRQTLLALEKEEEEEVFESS

Kd [1]: 9.3 ± 0.4 µM
dH [1]: -2.7 kcal/mol
stoichiometry N [1]: 1
B1: Blinkin S208-K226 peptide (peptide, UniProt Q8NG31-2 208-226, looked up)
peptide: SSENKIDFNDFIKRLKTGK
notes: Blinkin (KNL1, CASC5), human, NCBI NP_653091.2, residues S208-K226; peptide synthesis is in the supplement; also called Blinkin peptide; source: synthetic peptide
increase of the Tm of BUBR1_(57-220) on addition of the peptide [2]: ~2 °C
